Publication PMC12018148

Key:
[1] = target: activated factor X (FXa) (human); test: kinetics of protease inhibition
[2] = target: activated factor XI (FXIa) (human); test: kinetics of protease inhibition

activated factor X (FXa) (human), sequence (P00742 whole entry): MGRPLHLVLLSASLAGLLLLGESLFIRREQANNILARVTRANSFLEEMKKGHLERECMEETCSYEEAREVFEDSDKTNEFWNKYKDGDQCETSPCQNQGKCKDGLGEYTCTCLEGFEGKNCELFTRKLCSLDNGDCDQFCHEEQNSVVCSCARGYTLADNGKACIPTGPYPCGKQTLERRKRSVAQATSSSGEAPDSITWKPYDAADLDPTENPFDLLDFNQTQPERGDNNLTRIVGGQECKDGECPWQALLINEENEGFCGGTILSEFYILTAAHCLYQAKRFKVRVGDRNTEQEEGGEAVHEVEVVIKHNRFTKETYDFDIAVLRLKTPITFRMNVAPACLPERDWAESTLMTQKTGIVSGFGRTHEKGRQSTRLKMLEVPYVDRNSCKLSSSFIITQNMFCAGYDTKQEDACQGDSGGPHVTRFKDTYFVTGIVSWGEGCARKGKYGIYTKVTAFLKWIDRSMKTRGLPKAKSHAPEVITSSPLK

Row | ka with equimolar PZ and lipids, no FVa [1] [M⁻¹ s⁻¹] | ka with equimolar PZ, lipids and FVa [1] [M⁻¹ s⁻¹] | kon [1] [M⁻¹ s⁻¹] | Kd [2] [nM] | kon [2] [M⁻¹ s⁻¹] | Binder
1 | 1.79e+06 | 296000 | 9200 | 2 | 86200 | protein Z-dependent protease inhibitor (ZPI), wild type, recombinant human (natural protein) LAPSPQSPETPAPQNQTSRVVQAPKEEEEDEQEASEEKASEEEKAWLMASRQQLAKETSNFGFSLLRKISMRHDGNMVFSPFGMSLAMTGLMLGATGPTETQIKRGLHLQALKPTKPGLLPSLFKGLRETLSRNLELGLTQGSFAFIHKDFDVKETFFNLSKRYFDTECVPMNFRNASQAKRLMNHYINKETRGKIPKLFDEINPETKLILVDYILFKGKWLTPFDPVFTEVDTFHLDKYKTIKVPMMYGAGKFASTFDKNFRCHVLKLPYQGNATMLVVLMEKMGDHLALEDYLTTDLVETWLRNMKTRNMEVFFPKFKLDQKYEMHELLRQMGIRRIFSPFADLSELSATGRNLQVSRVLQRTVIEVDERGTEAVAGILSEITAYSMPPVIKVDRPFHFMIYEETSGMLLFLGRVVNPTLL
2 |  |  |  |  | 2600 | D293A/Y387D ZPI (double mutant of the protein Z-dependent protease inhibitor; P1 residue Y387 changed) (natural protein) LAPSPQSPETPAPQNQTSRVVQAPKEEEEDEQEASEEKASEEEKAWLMASRQQLAKETSNFGFSLLRKISMRHDGNMVFSPFGMSLAMTGLMLGATGPTETQIKRGLHLQALKPTKPGLLPSLFKGLRETLSRNLELGLTQGSFAFIHKDFDVKETFFNLSKRYFDTECVPMNFRNASQAKRLMNHYINKETRGKIPKLFDEINPETKLILVDYILFKGKWLTPFDPVFTEVDTFHLDKYKTIKVPMMYGAGKFASTFDKNFRCHVLKLPYQGNATMLVVLMEKMGDHLALEAYLTTDLVETWLRNMKTRNMEVFFPKFKLDQKYEMHELLRQMGIRRIFSPFADLSELSATGRNLQVSRVLQRTVIEVDERGTEAVAGILSEITADSMPPVIKVDRPFHFMIYEETSGMLLFLGRVVNPTLL
3 | 85000 | 6800 | 9500 | 2 | 112000 | D293A ZPI (protein Z-dependent protease inhibitor with Asp 293 mutated to Ala), recombinant human (natural protein) LAPSPQSPETPAPQNQTSRVVQAPKEEEEDEQEASEEKASEEEKAWLMASRQQLAKETSNFGFSLLRKISMRHDGNMVFSPFGMSLAMTGLMLGATGPTETQIKRGLHLQALKPTKPGLLPSLFKGLRETLSRNLELGLTQGSFAFIHKDFDVKETFFNLSKRYFDTECVPMNFRNASQAKRLMNHYINKETRGKIPKLFDEINPETKLILVDYILFKGKWLTPFDPVFTEVDTFHLDKYKTIKVPMMYGAGKFASTFDKNFRCHVLKLPYQGNATMLVVLMEKMGDHLALEAYLTTDLVETWLRNMKTRNMEVFFPKFKLDQKYEMHELLRQMGIRRIFSPFADLSELSATGRNLQVSRVLQRTVIEVDERGTEAVAGILSEITAYSMPPVIKVDRPFHFMIYEETSGMLLFLGRVVNPTLL
